Data from paper PMC3538150 (Cell reports, 2012).
Substitutions are numbered along the chain they refer to. Blank lines part the entries; values can stand above or below the binder they belong to. Where no end group is shown, it is not given here.

Legend:
[1] = target: T1, DNA ligase IV DNA binding domain (LigIV-DBD; residues 1-240), wild type (human, UniProt P49917 1-240); assay: ITC
T1 sequence (looked up): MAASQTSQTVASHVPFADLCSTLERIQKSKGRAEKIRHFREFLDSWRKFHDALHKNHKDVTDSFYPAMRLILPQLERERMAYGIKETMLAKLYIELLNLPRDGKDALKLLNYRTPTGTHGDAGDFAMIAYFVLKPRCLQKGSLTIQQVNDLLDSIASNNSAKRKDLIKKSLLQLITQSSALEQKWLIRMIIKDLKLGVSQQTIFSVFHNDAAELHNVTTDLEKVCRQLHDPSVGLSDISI

LigIV-DBD D18H = target: T2, LigIV-DBD D18H (human, UniProt P49917 1-240, D18H); assay: ITC
T2 sequence (looked up): T1 sequence (looked up) with D18H

LigIV-DBD V14A = target: T3, LigIV-DBD V14A (human, UniProt P49917 1-240, V14A); assay: ITC
T3 sequence (looked up): T1 sequence (looked up) with V14A

[2] = target: T1, DNA ligase IV DNA binding domain …; assay: fluorescence polarisation

Kd [1]: 4.8 µM
stoichiometry N [1]: 1 ± 0.1
Kd (LigIV-DBD D18H): 9.1 µM
Kd (LigIV-DBD V14A): 13.6 µM
B1: cArt-Pep, peptide derived from the Artemis C-terminal region (485-DVPQWEVFFKR-495) (peptide)
peptide: DVPQWEVFFKR

binding result [2]: binds
B2: 6-FAM (6-carboxyfluorescein) labeled cArt-Pep (peptide)
peptide: DVPQWEVFFKR
modifications: also: 6-FAM label, position not given here
